Experimental findings from US20170298331 are described below.

In one data set the test system is TALEN TN3 (Artificial). Kind of data set: cell_activity. The conditions noted are these: pair TN3/8, 17 bp spacer, preceded by 5'-T; Surveyor assay in DMD myoblasts (up to 12.7% and 6.8% in two lines).
A further data set deals with TALEN TN8 (Artificial). Kind of data set: cell_activity. The conditions noted are these: pair TN3/8, 17 bp spacer, preceded by 5'-T; Surveyor assay in DMD myoblasts (up to 12.7% and 6.8% in two lines).

Regarding “AGCTCCTACTCAGACT (double strand) [TN3 half-site, DMD exon 51]”, in the data set with TALEN TN3 (Artificial), the activity (% modified alleles) amounted to 12.7. In the data set on TALEN TN8 (Artificial), “CCTTAGTAACCACAGGT (double strand) [TN8 half-site, DMD exon 51]” gave an activity (% modified alleles) of 12.7.
